Measurements reported in PMC9352680, “A comprehensive thermodynamic model for RNA binding by the Saccharomyces cerevisiae Pumilio protein PUF4”.

T1: PUF4 RNA-binding domain (Saccharomyces cerevisiae, UniProt P25339 537-888)
T1 sequence: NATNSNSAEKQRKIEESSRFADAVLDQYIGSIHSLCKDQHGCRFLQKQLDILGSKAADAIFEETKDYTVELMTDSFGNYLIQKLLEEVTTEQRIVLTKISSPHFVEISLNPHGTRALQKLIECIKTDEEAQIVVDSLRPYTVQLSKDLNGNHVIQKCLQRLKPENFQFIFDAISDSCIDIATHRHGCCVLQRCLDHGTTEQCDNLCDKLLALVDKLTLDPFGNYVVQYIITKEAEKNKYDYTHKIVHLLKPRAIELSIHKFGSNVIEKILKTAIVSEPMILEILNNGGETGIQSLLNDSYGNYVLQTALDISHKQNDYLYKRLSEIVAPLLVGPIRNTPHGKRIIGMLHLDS


Biological target: T1, PUF4 RNA-binding domain
Assay: Mg; RNA-MaP; 20 mM Na-HEPES pH 7.4, 30 mM KOAc, 0.75 mM MgCl2, 0.1% Tween-20, 5% glycerol, 0.1 mg/mL BSA, 2 mM DTT; 25 C; 0.0125-409.6 nM protein
Details: tags: N-His6-TEV cleaved; C-SNAP kept, Cy3B-labelled; label: tethered on chip by stalled RNA polymerase

Binder	Kd [nM]
UCUCUUCAUGUAUAUACCUCUCUU (ssRNA) [Id_ii_S1_P3E.2_K3.1_C3.2_[T-1A]_H3.1_A3.1_F3.1_T3.2_[T9C]_[A10C]]	17.7
UCUCUUCAUGUAUAUACUUCUCUU (ssRNA) [Id_ii_S1_P3E.2_K3.1_C3.2_[T-1A]_H3.1_A3.1_F3.1_T3.2_[T9C]_[A10T]]	13.2
UCUCUUCAUGUAUAUAAGUCUCUU (ssRNA) [Id_ii_S1_P3E.2_K3.1_C3.2_[T-1A]_H3.1_A3.1_F3.1_T3.2_[T9A]_[A10G]]	6.69
UCUCUUCAUGUAUAUAACUCUCUU (ssRNA) [Id_ii_S1_P3E.2_K3.1_C3.2_[T-1A]_H3.1_A3.1_F3.1_T3.2_[T9A]_[A10C]]	16.9
UCUCUUCAUGUAUAUAAUUCUCUU (ssRNA) [Id_ii_S1_P3E.2_K3.1_C3.2_[T-1A]_H3.1_A3.1_F3.1_T3.2_[T9A]_[A10T]]	11.6
UCUCUUCAUGUAUAUAAAUCUCUU (ssRNA) [Id_ii_S1_P3E.2_K3.1_C3.2_[T-1A]_H3.1_A3.1_F3.1_T3.2_[T9A]]	13.1
UCUCUUCAUGUAUAUAUCUCUCUU (ssRNA) [Id_ii_S1_P3E.2_K3.1_C3.2_[T-1A]_H3.1_A3.1_F3.1_T3.2_[A10C]]	8.05
UCUCUUCGUACAUUAUCUCUU (ssRNA) [Ib_S1_P4E.1_K4.1_C4.1_H4.1_[T1C]_A4.1_[T5C]_F4.1_T4.1]	16.8
UCUCUUCAUGUAUAUAUUUCUCUU (ssRNA) [Id_ii_S1_P3E.2_K3.1_C3.2_[T-1A]_H3.1_A3.1_F3.1_T3.2_[A10T]]	8.07
UCUCUUCUUGUAUAUAGCUCUCUU (ssRNA) [Id_ii_S1_P3E.2_K3.1_C3.2_H3.1_A3.1_F3.1_T3.2_[T9G]_[A10C]]	4.12
UCUCUUCUUGUAUAUAGUUCUCUU (ssRNA) [Id_ii_S1_P3E.2_K3.1_C3.2_H3.1_A3.1_F3.1_T3.2_[T9G]_[A10T]]	3.72
UCUCUUCUUGUAUAUACGUCUCUU (ssRNA) [Id_ii_S1_P3E.2_K3.1_C3.2_H3.1_A3.1_F3.1_T3.2_[T9C]_[A10G]]	10.9
UCUCUUCUUGUAUAUACCUCUCUU (ssRNA) [Id_ii_S1_P3E.2_K3.1_C3.2_H3.1_A3.1_F3.1_T3.2_[T9C]_[A10C]]	7.41
UCUCUUCUUGUAUAUACUUCUCUU (ssRNA) [Id_ii_S1_P3E.2_K3.1_C3.2_H3.1_A3.1_F3.1_T3.2_[T9C]_[A10T]]	7.04
UCUCUUCUUGUAUAUAACUCUCUU (ssRNA) [Id_ii_S1_P3E.2_K3.1_C3.2_H3.1_A3.1_F3.1_T3.2_[T9A]_[A10C]]	8.53
UCUCUUCUUGUAUAUAAUUCUCUU (ssRNA) [Id_ii_S1_P3E.2_K3.1_C3.2_H3.1_A3.1_F3.1_T3.2_[T9A]_[A10T]]	8.3

Binder	Kd [nM]
UCUCUUCUUGUAUAUAAAUCUCUU (ssRNA) [Id_ii_S1_P3E.2_K3.1_C3.2_H3.1_A3.1_F3.1_T3.2_[T9A]]	8.21
UCUCUUCUUGUAUAUAUGUCUCUU (ssRNA) [Id_ii_S1_P3E.2_K3.1_C3.2_H3.1_A3.1_F3.1_T3.2_[A10G]]	12.2
UCUCUUCGUAAAUUAUCUCUU (ssRNA) [Ib_S1_P4E.1_K4.1_C4.1_H4.1_[T1C]_A4.1_[T5A]_F4.1_T4.1]	139
UCUCUUCUUGUAUAUAUCUCUCUU (ssRNA) [Id_ii_S1_P3E.2_K3.1_C3.2_H3.1_A3.1_F3.1_T3.2_[A10C]]	6.72
UCUCUUCUUGUAUAUAUUUCUCUU (ssRNA) [Id_ii_S1_P3E.2_K3.1_C3.2_H3.1_A3.1_F3.1_T3.2_[A10T]]	5.12
UCUCUUCUUGUAUAUAUAUCUCUU (ssRNA) [Id_ii_S1_P3E.2_K3.1_C3.2_H3.1_A3.1_F3.1_T3.2]	3.83
UCUCUUGGUAUAUAUAGUUCUCUU (ssRNA) [Id_ii_S1_P3E.3_K3.2_C3.2_[C-2G]_[T-1G]_H3.2_A3.1_F3.1_T3.2_[T9G]_[A10T]]	124
UCUCUUGGUAUAUAUAACUCUCUU (ssRNA) [Id_ii_S1_P3E.3_K3.2_C3.2_[C-2G]_[T-1G]_H3.2_A3.1_F3.1_T3.2_[T9A]_[A10C]]	782
UCUCUUGGUAUAUAUAAUUCUCUU (ssRNA) [Id_ii_S1_P3E.3_K3.2_C3.2_[C-2G]_[T-1G]_H3.2_A3.1_F3.1_T3.2_[T9A]_[A10T]]	524
UCUCUUGCUAUAUAUACUUCUCUU (ssRNA) [Id_ii_S1_P3E.3_K3.2_C3.2_[C-2G]_[T-1C]_H3.2_A3.1_F3.1_T3.2_[T9C]_[A10T]]	853
UCUCUUGCUAUAUAUAACUCUCUU (ssRNA) [Id_ii_S1_P3E.3_K3.2_C3.2_[C-2G]_[T-1C]_H3.2_A3.1_F3.1_T3.2_[T9A]_[A10C]]	1500
UCUCUUGCUAUAUAUAUGUCUCUU (ssRNA) [Id_ii_S1_P3E.3_K3.2_C3.2_[C-2G]_[T-1C]_H3.2_A3.1_F3.1_T3.2_[A10G]]	754
UCUCUUGCUAUAUAUAUCUCUCUU (ssRNA) [Id_ii_S1_P3E.3_K3.2_C3.2_[C-2G]_[T-1C]_H3.2_A3.1_F3.1_T3.2_[A10C]]	545
UCUCUUAGUACAUUAUCUCUU (ssRNA) [Ib_S1_P4E.1_K4.1_C4.1_H4.1_[T1A]_A4.1_[T5C]_F4.1_T4.1]	39.1
UCUCUUGAUAUAUAUAGCUCUCUU (ssRNA) [Id_ii_S1_P3E.3_K3.2_C3.2_[C-2G]_[T-1A]_H3.2_A3.1_F3.1_T3.2_[T9G]_[A10C]]	500
UCUCUUGAUAUAUAUACCUCUCUU (ssRNA) [Id_ii_S1_P3E.3_K3.2_C3.2_[C-2G]_[T-1A]_H3.2_A3.1_F3.1_T3.2_[T9C]_[A10C]]	1310
